experiment: soluble on expression in E. coli; label from the status in PepcDB or PDB records

Row | Sequence | soluble on expression in E. coli
1 | MDTEKLMKAGEIAKKVREKAIKLARPGMLLLELAESIEKMIMELGGKPAFPVNLSINEIAAHYTPYKGDTTVLKEGDYLKIDVGVHIDGFIADTAVTVRVGMEEDELMEAAKEALNAAISVARAGVEIKELGKAIENEIRKRGFKPIVNLSGHKIERYKLHAGISIPNIYRPHDNYVLKEGDVFAIEPFATIGAGQVIEVPPTLIYMYVRDVPVRVAQARFLLAKIKREYGTLPFAYRWLQNDMPEGQLKLALKTLEKAGAIYGYPVLKEIRNGIVAQFEHTIIVEKDSVIVTQDMINKST | soluble
2 | MDTKHPPDPSGPSDPNINLGEFEDPVDGYADDDLLTPDDLSVSVTGMTPSRSFLETEEFETELGGVEPFEDLFNDISAHEIIQVIADGDRVGRPIVVVYAYRLPSSKEIDHARLLQYLVQIIDKIVDQDYTIVYFHYGLRSHNKPPVRWLFQAYKQLDRRFKKNLKALYVVHPTRFIRIIFSLFKGFISSKFENKFHYVMCIDELENALSVARLNLPSPIRDHDKSFSTQSNRPETPPAQPLPTQQFGVPLEFILSHCGGNIPPIVDQLIEYLEAHALTMEGVFRKSANIGSIKRLQDRINKGEKIDFENDPEYKDNEYVASLHASVLLKTFFRSLGEPLTTNRLYPKLAALSEVSKTEKSAAVKEFVKLLPRENYILLKTVIKFLTRVAENSKVNLMTANNLSVVFGPNLTWPTDQEVPISQLNNLNNFCYKLIVDYDSVFDH | not soluble
3 | MDTPNKDDSIIRFSVSLQQNLLDELDNRIIKNGYSSRSELVRDMIREKLVEDNWAEDNPNDESKIAVLVVIYDGGQRELNQRMIDIQHASGTHVLCTTHIHMDEHNCLETIILQGNSFEIQRLQLEIGGLRGVKFAKLTKASSFEYNE | soluble
4 | MDTQQLINAITPEAYQRLLYAVETGKWPEGTPLSQQQRDSCMQAVMLYQSKHNTQADHMSVGVGGEVVFKSKAELKKRFSEGEEDILRVNPNQEA | not soluble
5 | MDTRDGNEKTRDAILDAAVMHVPFDGWSETTLRAAIRDSGVAPGLARALFPRGGVDLALAYHRRGDERMLEKAAAADLGALRYSERVAALIRFRLEAVEDKELVRRGSTLFSLPQHAGDGARALWGTADRIWTALGDSSRDLNWYTKRATLSAVYAATVLYWLGDDTPGHYATWEFLDRRIADVLRFEKMKTEAQRNPLLRAVTAGPRMVMRRVHAPAPPADVPGRSSRFLEHHHHHH | soluble
6 | MDTTKTIAALFDFDGVIMDTETQYTVFWDEQGRKYLNEEDFGRRIKGQTLTQIYEKYFSDLPEAQQEITAGLNIYEKSMSYEYIPGVEAFIADLRKHGAKIAVVTSSNEEKMQNVYNAHPEFKGMVDRILTGEMFARSKPAPDCFLLGMEIFGATPENSYVFEDSFHGLQAGMTSGATVIGLATTNTREAITGKAHYIIDDFSEMTFEHLLALHR | not soluble
7 | MDVENEQILNVNPADPDNLSDSLFSGDEENAGTEEVKNEINGNWISAYSINEARINAKAKRRLRKNSSRDSGRGDSVSDSGSDALRSGLTVPTSPKGRLLDRRSRSGKGRGLPKKGGAGGKGVWGTPGQVYDVEEVDVKDPNYDDDQENCVYETVVLPLDERAFEKTLTPIIQEYFEHGDTNEVAEMLRDLNLGEMKSGVPVLAVSLALEGKASHREMTSKLLSDLCGTVMSTTDVEKSFDKLLKDLPELALDTPRAPQLVGQFIARAVGDGILCNTYIDSYKGTVDCVQARAALDKATVLLSMSKGGKRKDSVWGSGGGQQSVNHLVKEIDMLLKEYLLSGDISEAEHCLKELEVPHFHHELVYEAIIMVLESTGESTFKMILDLLKSLWKSSTITVDQMKRGYERIYNEIPDINLDVPHSYSVLERFVEECFQAGIISKQLRDLCPSRGRKRFVSEGDGGRLKPESY | soluble
8 | MDVIPLSLGLETMGGLVEKVIPRNTTIPVARAQDFTTFKDGQTAMSIHVMQGERELVQDCRSLARFALRGIPALPAGGAHIRVTFQVDADGLLSVTAMEKSTGVEASIQVKPSYGLTDSEIASMIKDSMSYAEQDVKARMLAEQKVEAARVLESLHGALAADAALLSAAERQVIDDAAAHLSEVAQGDDVDAIEQAIKNVDKQTQDFAARRMDQSVRRALKGHSVDE | soluble
9 | MDVLNAANDLLPLLPEVQDALSEDFDGVECSMGAGVVLEQAPFRMAFPHMGRQVTFVPDTSCLEEFDGAKLHRINLGPKSAVFTDGEPGCCMELILGAGKDWKTPLVKLFSRVYPNKWAFFITELESGQATYHILSSSHGMLSSARREDTPDSTEQSSMVSSPTASVSDATNYSLWIVPVTKVFAIPAPKKVKVVRKVIKKRTPVDGSTNGTNGTSVVNGNGTMNGHVSPEDGERKVRLVKKKPPTEKLESSTEREISPLNDLPKPEFSTIASSESMKTVINGKSEREEAGPSNDSSDGGSASELRKKLTEKIMEQKFMVNGEQRALNGNASSRGLGRSISRSSMTPDRRLDPILEDGSKQRQAIASAISVNRPSITRNSATPPMTPHSKLALEMLFKLDKLWKYFKFIYSKCRYTFIQFFNSTFSNTKIYSVEIMDAEVIKVLVSHPSKPNIPVMVLQLVLTKCLNYEHLGRLREVHPHWDEIAGQLLNSGYYKLLERSDKLLMTLQRKVVSDPGLHYATSVLTNIQMHILNPVDIMRAVLDEGVCCFPYGVILDKTFILLDKVEAMLHGSYEEDVHWEPVAKLAKKAASHYRGNLERVMEERMGENLRLKAAQRIIRLESFVVDAQVAKLEKESNKAKEDVRWEIDQLHQKNSQLRKDNREMKANQMRLEARVEALEQKFKTLARLLS | not soluble
10 | MDVQQRLGGLLEITESRICLHCLGRHFVDLVEGPGNRLRGEKLQKKFSLKLSGPCMICGDVFDRIDEAAGMVKEKVDELGLEYSSVLVGTRLPPKMVELDDEIRKRLGIQTEGLKRDLNRELGKRVVKLLGCSAEFEDPDLVVMVDFRGDIRVWIQINPLFLEGRYRKLVRGIPQTRWPCRKCRGRGCERCNYTGKMYPTSVEELIAGPILEASQGRDARFHGSGREDVDVRMLGTGRPFVLEIREPRVRNLDPESLEEEVNRRAQGMVEVEGLRFSTRKRKVELKDSSQSRYKVYRALVELDGDVTDEDLERLGSLDIIKQRTPVRVSHRRADRVRERRVLEISWNLLDGCLELIIKGEGGLYIKELISGDSGRTEPSVSSVLGVPARCVALDVLEVGDEPSEKDLEHHHHHH | soluble
11 | MDYFNIFAYGELMKDEILFELINRVPEKNLGKIYNFEKFFDEKIGYYGIKPKENSSISGIILFNINSTELEIFDDYEDEGTYYSKNKTICYDLNGKGYESYVYVRLELEHHHHHH | not soluble
12 | MDYILGRYVKIARYGSGGLVGGGGKEQYVENLVLWENIIKTAYCFITPSSYTAALETANIPEKDFSNCFRFLKENFFIIPGEYNNSTENNRYSRNFLHYQSYGANPVLVQDKLKNAKVVILGCGGIGNHVSVILATSGIGEIILIDNDQIENTNLTRQVLFSEDDVGKNKTEVIKRELLKRNSEISVSEIALNINDYTDLHKVPEADIWVVSADHPFNLINWVNKYCVRANQPYINAGYVNDIAVFGPLYVPGKTGCYECQKVVADLYGSEKENIDHKIKLINSRFKPATFAPVNNVAAALCAADVIKFIGKYSEPLSLNKRIGIWSDEIKIHSQNMGRSPVCSVCGNRMLEHHHHHH | soluble
13 | MDYKSKTANDKEISIYYFSATGNSLKLSQDIAAAFGGAGLFRMTPSAGITASDSRIVGFIFPVYMGGLPGIVRRFLESYPFRKGVYYFSIGTYYTYKGCAVSVVDKIMSGKGVRLDYGYNLPTVGNCLKEYEVSSVRRTKILERAELYTSRIIDDLKKGKRKKPFPYCRLSDLLHKGLFNAFFSRSHLNFSLENGCMGCGVCERVCPVNNITLKNGVPRWGTGCEACHACVHWCPRNVIQIGKSKGRLQYHHPAVKRTMLYRVELEHHHHHH | not soluble
14 | MDYTIENNMIKVVISDHGAEIQSVKSAHTDEEFMWQANPEIWGRHAPVLFPIVGRLKNDEYTYKGKTYHLGQHGFARNADFEVENHTKESITFLLKDNEETRKVYPFKFEFRVNYNLMNNLLEENFSVVNKSDETMIFGVGGHPGFNLPTDHGENKEDFYFDMHPSVTRVRIPLKDASLDWNNRSLAPTDSLIALSDDLFKDDALIYELRGNDNKVSLRTDKNKFHVNVWTRDAPFVGIWSQYPKTDNYVCIEPWWGIADRDDADGDLEHKYGMNHLKPGKEFQAGFSMTYHSTTDEVKLEHHHHHH | soluble
15 | MEAAASEPSLDLDNLKLLELIGRGRYGAVYKGSLDERPVAVKVFSFANRQNFINEKNIYRVPLMEHDNIARFIVGDERVTADGRMEYLLVMEYYPNGSLCKYLSLHTSDWVSSCRLAHSVTRGLAYLHTELPRGDHYKPAISHRDLNSRNVLVKNDGTCVISDFGLSMRLTGNRLVRPGEEDNAAISEVGTIRYMAPEVLEGAVNLRDCESALKQVDMYALGLIYWEIFMRCTDLFPGESVPEYQMAFQTEVGNHPTFEDMQVLVSREKQRPKFPEAWKENSLAVRSLKETIEDCWDQDAEARLTAQCAEERMAELMMIWERNKSVSPTAHHHHHH | soluble
16 | MEAAHFFEGTEKLLEVWFSRQQPDANQGSGDLRTIPRSEWDILLKDVQCSIISVTKTDKQEAYVLSEASMFVSKRRFILKTCGTTLLLKALVPLLKLARDYSGFDSIQSFFYSRKNFMKPSHQGYPHRNFQEEIEFLNAIFPNGAAYCMGRMNSDCWYLYTLDFPESRVISQPDQTLEILMSELDPAVMDQFYMKDGVTAKDVTRESGIRDLIPGSVIDATMFNPCGYSMNGMKSDGTYWTIHITPEPEFSYVSFETNLSQTSYDDLIRKVVEVFKPGKFVTTLFVNQSSKCRTVLASPQKIEGFKRLDCQSAMFNDYNFVFTSFAKKQQQQQSHICRSQMVTSQQTSSVVRQT | soluble
17 | MEADGLGCAVCVLTGASRGFGRALAPQLARLLSPGSVMLVSARSESMLRQLKEELGAQQPDLKVVLAAADLGTEAGVQRLLSAVRELPRPEGLQRLLLINNAATLGDVSKGFLNVNDLAEVNNYWALNLTSMLCLTSGTLNAFQDSPGLSKTVVNISSLCALQPYKGWGLYCAGKAARDMLYQVLAAEEPSVRVLSYAPGPLDNDMQQLARETSKDPELRSKLQKLKSDGALVDCGTSAQKLLGLLQKDTFQSGAHVDFYD | soluble
18 | MEAEKKKLSIPPKGIRAIIEAIRLGEIIKPSQYAKREAFKKHDVEEAWLNRVLTMIFYDIMKKQGLIDKVIKEIVGVTPLILDPWLRAALRVAVDIALFHDPSSQTIKNLRWKASDFISSRTHPYVGMYFWDLLDKIFEYKPNPKNELEELEWKYLAPSWLIERVKGILGDETEDFFRSVNKRHEWISIRVNTLKANVEEVIGELEEDGVEVVRSERVPTILKIKGPYNFDTSSAFNEGKIIVQEEASAVASIVLDPKPGETVVDLAAAPGGKTTHLAELMKNKGKIYAFDVDKMRMKRLKDFVKRMGIKIVKPLVKDARKAPEIIGEEVADKVLLDAPCTSSGTIGKNPELRWRLREDKINEMSQLQRELLESAARLVKPGGRLLYTTCSIFKEENEKNIRWFLNVHPEFKLVPLKSPYDPGFLEGTMRAWPHRHSTIGFFYALLEKSK | soluble
19 | MEAKQTVFVNEFTNGILDPHGNMLGPVQDGGYIVANTTPGCWGPMITPCIRGGHEVTKPVFVEGAEVGDAIAIKIKSIRVTSIATSSGNDKPMEGRFVGDPFVAVKCPQCGTMYPETKIEGIGPEAIRCANCGADVTPFVFTNGYTMTFDPNRQIGVTVHKEAAEHIARQGRYYMATPDNSVQNPIVTFAPHDLVGTVARLRPFLGQLGTTPARPLPDSHNAGDFGQFLINAPHEYGITKEQLEDRTDGHMDINRVREGAVLICPVKVRGGGVYLGDMHAMQGDGEIAGHTTDVSGIVTLQVKVIKGLTIDGPILLPVAEDLPYLAKPLTKKEKEIALDLAQSWGVDKLEESLPISFVGTGANLNEATENGLQRAAKTLGISVPEVMNRATITGAIEIGRHPGVITVTFLCPIRYLDKISLTSLVYDQYRSVLE | not soluble

From the DeepSol protein solubility set
